Experimental data published in US20240207462A1 (ABDERA THERAPEUTICS, published 2024).

Target: T1, human DLL3.FLAG (Adipogen #AG-40B-0151, amino acid 27-466) (human, UniProt Q9NYJ7 27-466)
T1 construct: range 27-466; The ELISA used human DLL3.FLAG or human DLL3.HIS (abcam #ab255797, amino acid 27-492); not shown: FLAG tag
T1 sequence (looked up): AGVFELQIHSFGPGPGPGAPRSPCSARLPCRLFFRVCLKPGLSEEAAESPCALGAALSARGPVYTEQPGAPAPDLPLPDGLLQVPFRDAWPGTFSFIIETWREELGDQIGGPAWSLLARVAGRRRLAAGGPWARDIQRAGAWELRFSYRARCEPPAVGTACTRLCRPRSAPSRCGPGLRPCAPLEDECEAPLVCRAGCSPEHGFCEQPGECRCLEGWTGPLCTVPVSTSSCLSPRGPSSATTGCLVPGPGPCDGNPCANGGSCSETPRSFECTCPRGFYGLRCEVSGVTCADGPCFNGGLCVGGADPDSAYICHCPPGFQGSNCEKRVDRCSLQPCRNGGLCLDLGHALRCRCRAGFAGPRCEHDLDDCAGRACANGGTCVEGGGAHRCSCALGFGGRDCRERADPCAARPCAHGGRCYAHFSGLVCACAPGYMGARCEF
Assay: ELISA, plate coated with hDLL3-Flag, goat anti-human IgG Fc-HRP, TMB, A450

B1: Rovalpituzumab (Creative Biolabs #TAB-216CL) (antibody, V domains shown)
VH: QVQLVQSGAEVKKPGASVKVSCKASGYTFTNYGMNWVRQAPGQGLEWMGWINTYTGEPTYADDFKGRVTMTTDTSTSTAYMELRSLRSDDTAVYYCARIGDSSPSDYWGQGTLVTVSS
VL: EIVMTQSPATLSVSPGERATLSCKASQSVSNDVVWYQQKPGQAPRLLIYYASNRYTGIPARFSGSGSGTEFTLTISSLQSEDFAVYYCQQDYTSPWTFGQGTKLEIK
- EC50 (read off the curve): ~80 pM
